Assay results: patent publication US6458929 (LICENTIA, dated 2002)

Experiments:
[1] = biological target: T1, myotilin (full length, 498 residues) (human, UniProt Q9UBF9 1-498); test: yeast two-hybrid
T1 construct: In the yeast two-hybrid assay, full-length myotilin was expressed as a bait (EG202) or prey (JG4-5) fusion protein; In Western blots and staining it was the endogenous muscle protein; also called full-length myotilin
T1 sequence: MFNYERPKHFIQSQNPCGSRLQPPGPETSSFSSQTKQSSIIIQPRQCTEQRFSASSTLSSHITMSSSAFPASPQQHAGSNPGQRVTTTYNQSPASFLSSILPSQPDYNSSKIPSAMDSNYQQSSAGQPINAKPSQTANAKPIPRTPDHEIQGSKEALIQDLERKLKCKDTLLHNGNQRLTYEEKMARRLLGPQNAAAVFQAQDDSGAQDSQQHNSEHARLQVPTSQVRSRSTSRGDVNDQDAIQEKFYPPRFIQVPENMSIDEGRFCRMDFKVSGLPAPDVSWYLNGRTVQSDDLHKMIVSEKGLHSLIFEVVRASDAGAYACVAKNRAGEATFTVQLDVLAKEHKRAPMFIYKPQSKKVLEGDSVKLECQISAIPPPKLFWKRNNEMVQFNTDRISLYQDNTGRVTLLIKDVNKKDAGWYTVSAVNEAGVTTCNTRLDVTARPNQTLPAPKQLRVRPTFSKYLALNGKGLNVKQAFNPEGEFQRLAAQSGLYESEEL
Procedure: (§1) The COOH-terminal construct of myotilin was subcloned from a partial cDNA sequence obtained from the skeletal muscle library screen. The authentity of the constructs was verified by sequencing. The genotype of the S. cerevisiae strain BOY1, kindly provided by P. Ljungdahl, Ludwig Institute for Cancer Research, Stockholm, Sweden, is MATαhis3 trp1 leu2::6LexAop-LEU2 URA3::8LexAop-Gal1-LacZ. Boy1 mating type a was made using the YCPHO CUT4 plasmid. Yeast strains were grown at 30° C. in rich medium or in synthetic minimal medium with appropriate amino acid supplements. Bait and prey constructs were transformed into BOY1-yeast of both a and a mating type using the TRAFO protocol and plated on selection plates. Clones were grown to late logarithmic phase in selective medium. For analysis of fusion protein expression, yeast cells from 1 ml of overnight culture were lysed in reducing Laemmli sample buffer, the samples were boiled and analyzed by SDS-PAGE and immunoblotting. Baits and preys were grown on selection plates, replica plated together on rich media plates for mating overnight and replica plated on double (tryptophane and histidine) or triple (tryptophane, histidine and leucine) selection with or without 5-bromo-4-chloro-3-indolyl-β-D-galactopyranoside (X-gal)(Boehringer) for selection of interactions.

[2] = biological target: T2, spectrin-like repeats R1-R4 (residues 267-749) of chicken smooth muscle α-actinin (chicken, UniProt P05094 267-749); test: yeast two-hybrid
T2 construct: range 267-749; Expressed as a bait (EG202) or prey (JG4-5) fusion protein in the yeast two-hybrid assay; also called α-actinin (R1-R4)
Procedure: as §1

T2 sequence (P05094 267-749 limits assumed): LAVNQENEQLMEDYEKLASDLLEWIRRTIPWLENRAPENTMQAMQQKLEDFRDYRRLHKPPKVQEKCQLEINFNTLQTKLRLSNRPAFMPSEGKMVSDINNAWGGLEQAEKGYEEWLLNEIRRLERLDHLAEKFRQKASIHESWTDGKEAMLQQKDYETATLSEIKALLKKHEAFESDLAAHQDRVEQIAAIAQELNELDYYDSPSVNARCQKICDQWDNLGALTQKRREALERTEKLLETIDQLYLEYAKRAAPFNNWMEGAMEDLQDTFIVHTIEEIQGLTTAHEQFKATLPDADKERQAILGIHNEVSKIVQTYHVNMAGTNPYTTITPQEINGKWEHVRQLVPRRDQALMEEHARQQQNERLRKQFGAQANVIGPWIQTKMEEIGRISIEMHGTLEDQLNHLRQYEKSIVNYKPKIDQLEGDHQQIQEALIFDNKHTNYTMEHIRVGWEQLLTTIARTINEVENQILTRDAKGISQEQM

binding result [1]: binds | binding result [2]: no binding
B1: myotilin215-498 (other)
chain: SEHARLQVPTSQVRSRSTSRGDVNDQDAIQEKFYPPRFIQVPENMSIDEGRFCRMDFKVSGLPAPDVSWYLNGRTVQSDDLHKMIVSEKGLHSLIFEVVRASDAGAYACVAKNRAGEATFTVQLDVLAKEHKRAPMFIYKPQSKKVLEGDSVKLECQISAIPPPKLFWKRNNEMVQFNTDRISLYQDNTGRVTLLIKDVNKKDAGWYTVSAVNEAGVTTCNTRLDVTARPNQTLPAPKQLRVRPTFSKYLALNGKGLNVKQAFNPEGEFQRLAAQSGLYESEEL
notes: Expressed in the yeast two-hybrid assay as a prey fusion protein in JG4-5; it could not be expressed as a bait; also called NH2-terminal deletion construct containing the Ig-domains
